Assay results: doi:10.1101/2025.08.13.669967

Tests used:
[1] = target: Artemia franciscana ferritin (Artemia franciscana); experiment: native gel or EMSA
[2] = target: Artemia franciscana ferritin (Artemia franciscana); experiment: cryo-EM structure

stoichiometry N [1]: 24
stoichiometry N [2]: 24
Substance: Artemia franciscana ferritin (natural protein)
